Results published in the supplement of paper PMC10567573.

B1: PPP2R2B (parent)
chain: RNTKRDVTLEASRENSKPRAILKP

Variants of: B1
Assay: protein stability index of a GFP-peptide fusion (GPS, HEK-293T) (PSI 1-6); higher = more stable
Conditions: c terminus: a fixed tail appended
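Note: lentivirally expressed fusions sorted by FACS into six bins by GFP to DsRed ratio, PSI derived from sequencing read proportions per bin multiplied by bin number.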

Variant	protein stability index
RNTKRDVTLEASRTNSKPRAILKP	4.58
RNTKRDVTLEASRPNSKPRAILKP	4.3
RNTKRDVTLEASRQNSKPRAILKP	4.97
RNTKRDVTLEASRKNSKPRAILKP	4.12
RNTKRDVTLEASRGNSKPRAILKP	4.4
RNTKRDVTLEASRVNSKPRAILKP	3.79
RNTKRDVTLEASRRNSKPRAILKP	4.14
RNTKRDVTLEASRMNSKPRAILKP	3.88
RNTKRDVTLEASRCNSKPRAILKP	3.9
RNTKRDVTLEASRYNSKPRAILKP	3.67
RNTKRDVTLEASRNNSKPRAILKP	4.72
RNTKRDVTLEASRDNSKPRAILKP	4.4
RNTKRDVTLEASRLNSKPRAILKP	4.04
RNTKRDVTLEASRHNSKPRAILKP	4.49
RNTKRDVTLEASRFNSKPRAILKP	3.88
RNTKRDVTLEASRSNSKPRAILKP	4.45
RNTKRDVTLEASRINSKPRAILKP	3.72
RNTKRDVTLEASRANSKPRAILKP	4.66
RNTKRDVTLEASRENSLPRAILKP	4.56
RNTKRDVTLEASRENSIPRAILKP	4.33
RNTKRDVTLEASRENSHPRAILKP	4.47
RNTKRDVTLEASRENSRPRAILKP	4.38
RNTKRDVTLEASRENSSPRAILKP	4.04
RNTKRDVTLEASRENSYPRAILKP	4.14

Variant	protein stability index
RNTKRDVTLEASRENSTPRAILKP	4.71
RNTKRDVTLEASRENSAPRAILKP	4.66
RNTKRDVTLEASRENSDPRAILKP	4.57
RNTKRDVTLEASRENSWPRAILKP	4.3
RNTKRDVTLEASRENSQPRAILKP	4.81
RNTKRDVTLEASRENSCPRAILKP	4.18
RNTKRDVTLEASRENSFPRAILKP	4.37
RNTKRDVTLEASRENSGPRAILKP	4.89
RNTKRDVTLEASRENSEPRAILKP	5.13
RNTKRDVTLEASRENSNPRAILKP	4.5
RNTKRDVTLEASRENSPPRAILKP	5.27
RNTKRDVTLEASRENSVPRAILKP	4.66
RNTKRDVTLEASRENSMPRAILKP	4.69
RNTKRDVTLEASRENNKPRAILKP	4.48
RNTKRDVTLEASRENYKPRAILKP	4.17
RNTKRDVTLEASRENMKPRAILKP	4.53
RNTKRDVTLEASRENTKPRAILKP	4.2
RNTKRDVTLEASRENDKPRAILKP	4.58
RNTKRDVTLEASRENVKPRAILKP	4.24
RNTKRDVTLEASRENLKPRAILKP	4.16
RNTKRDVTLEASRENCKPRAILKP	4.23
RNTKRDVTLEASRENWKPRAILKP	3.37
RNTKRDVTLEASRENRKPRAILKP	4.24
RNTKRDVTLEASRENFKPRAILKP	4.38

Variant	protein stability index
RNTKRDVTLEASRENKKPRAILKP	4.23
RNTKRDVTLEASRENGKPRAILKP	4.42
RNTKRDVTLEASRENAKPRAILKP	4.51
RNTKRDVTLEASRENHKPRAILKP	4.57
RNTKRDVTLEASRENQKPRAILKP	4.61
RNTKRDVTLEASRENPKPRAILKP	4.96
RNTKRDVTLEASRENEKPRAILKP	4.75
RNTKRDVTLEASRENIKPRAILKP	4.19
RNTKRDVTLEASLENSKPRAILKP	4.44
RNTKRDVTLEASFENSKPRAILKP	3.98
RNTKRDVTLEASNENSKPRAILKP	4.83
RNTKRDVTLEASAENSKPRAILKP	4.92
RNTKRDVTLEASPENSKPRAILKP	4.46
RNTKRDVTLEASHENSKPRAILKP	5.06
RNTKRDVTLEASQENSKPRAILKP	4.75
RNTKRDVTLEASVENSKPRAILKP	4.67
RNTKRDVTLEASDENSKPRAILKP	5.09
RNTKRDVTLEASEENSKPRAILKP	5.14
RNTKRDVTLEASCENSKPRAILKP	4.16
RNTKRDVTLEASMENSKPRAILKP	4.64
RNTKRDVTLEASSENSKPRAILKP	4.91
RNTKRDVTLEASTENSKPRAILKP	4.07
RNTKRDVTLEASGENSKPRAILKP	5.06
RNTKRDVTLEASIENSKPRAILKP	4.53

Variant	protein stability index
RNTKRDVTLEASWENSKPRAILKP	3.56
RNTKRDVTLEASKENSKPRAILKP	4.69
RNTKRDVTLEASYENSKPRAILKP	4.37
RNTKRDVTHEASRENSKPRAILKP	4.46
RNTKRDVTEEASRENSKPRAILKP	4.78
RNTKRDVTDEASRENSKPRAILKP	5.09
RNTKRDVTMEASRENSKPRAILKP	4.84
RNTKRDVTPEASRENSKPRAILKP	4.4
RNTKRDVTQEASRENSKPRAILKP	5.07
RNTKRDVTVEASRENSKPRAILKP	4.59
RNTKRDVTFEASRENSKPRAILKP	4.11
RNTKRDVTTEASRENSKPRAILKP	4.96
RNTKRDVTKEASRENSKPRAILKP	4.26
RNTKRDVTGEASRENSKPRAILKP	4.88
RNTKRDVTREASRENSKPRAILKP	4.84
RNTKRDVTAEASRENSKPRAILKP	4.9
RNTKRDVTWEASRENSKPRAILKP	4.34
RNTKRDVTYEASRENSKPRAILKP	4.52
RNTKRDVTSEASRENSKPRAILKP	4.89
RNTKRDVTNEASRENSKPRAILKP	4.22
RNTKRDVTIEASRENSKPRAILKP	4.38
RNTKRDVTCEASRENSKPRAILKP	4.78
